# Test results as given in patent US20150216795A1 (SANOFI, priority 2012, published 2015).
# How the values were obtained:
# [1] = system: colorectal, pancreatic, and lung cancer populations; assay: Three Phase 3 placebo-controlled clinical studies, GI perforation; assay type: in vivo, human; settings: across three Phase 3 placebo-controlled studies
# Excerpt: Gastrointestinal (GI) perforation including fatal GI perforation can occur in patients receiving ZALTRAP. Across three Phase 3 placebo-controlled clinical studies (colorectal, pancreatic, and lung cancer populations), the incidence of GI perforation (all grades) was 0.8% for patients treated with ZALTRAP and 0.3% for patients treated with placebo. Grade 3-4 GI perforation events occurred in 0.8% of patients treated with ZALTRAP and 0.2% of patients treated with placebo.
# patients with cancer = assay: Pooled safety across completed studies (RPLS, TMA); assay type: in vivo, human
# Excerpt: Severe proteinuria, nephrotic syndrome, and thrombotic microangiopathy (TMA) occurred more frequently in patients treated with ZALTRAP. In patients with mCRC, proteinuria was reported in 62% patients treated with ZALTRAP/FOLFIRI compared to 41% patients treated with placebo/FOLFIRI. Grade 3-4 proteinuria occurred in 8% of patients treated with ZALTRAP/FOLFIRI to 1% of patients treated with placebo/FOLFIRI [see Adverse Reactions (6.1)]. Nephrotic syndrome occurred in 2 patients (0.5%) treated with ZALTRAP/FOLFIRI compared to none of the patients treated with placebo/FOLFIRI. TMA was reported in 3 of 2258 patients with cancer enrolled across completed studies.
# RPLS (also known as posterior reversible encephalopathy syndrome) was reported in 0.5% of 3795 patients treated with ZALTRAP monotherapy or in combination with chemotherapy.
# [2] = system: patients with various cancers; assay: Immunogenicity, anti-product antibody (APA) across 15 studies; assay type: in vivo, human
# Excerpt: As with all therapeutic proteins, there is a potential for immunogenicity. In patients with various cancers across 15 studies, 1.4% (41/2862) of patients tested positive for anti-product antibody (APA) at baseline. […] Among patients who tested positive for APA and had sufficient samples for further testing, neutralizing antibodies were detected in 17 of 48 ziv-aflibercept-treated patients and in 2 of 40 patients receiving placebo.
# Immunogenicity data are highly dependent on the sensitivity and specificity of the assay. Additionally, the observed incidence of antibody positivity in an assay may be influenced by several factors, including sample handling, timing of sample collection, concomitant medications, and underlying disease. For these reasons, comparison of the incidence of antibodies to ZALTRAP with the incidence of antibodies to other products may be misleading.
# human PIGF-2 = target: T1, human PIGF-2 (Homo sapiens, UniProt P49763); assay: Binding, equilibrium dissociation constant
# T1 sequence (P49763 19-170 isoform P49763-3 limits assumed): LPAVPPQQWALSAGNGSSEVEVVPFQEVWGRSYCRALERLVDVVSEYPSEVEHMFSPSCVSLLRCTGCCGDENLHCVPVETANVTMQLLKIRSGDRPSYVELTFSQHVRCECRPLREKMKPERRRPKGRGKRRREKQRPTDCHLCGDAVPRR
# Excerpt: (§1) This inhibition can result in decreased neovascularization and decreased vascular permeability.
# human VEGF-B = target: T2, human VEGF-B (Homo sapiens, UniProt P49765); assay: Binding, equilibrium dissociation constant
# T2 sequence (P49765 31-129 limits assumed): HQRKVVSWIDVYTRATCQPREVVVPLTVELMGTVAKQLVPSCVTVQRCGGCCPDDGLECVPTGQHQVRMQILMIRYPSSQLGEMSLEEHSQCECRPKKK
# Excerpt: as §1
# [3] = Clinical pharmacokinetics, plasma free ziv-aflibercept by ELISA; assay type: in vivo, human
# [4] = Population pharmacokinetic analysis; assay type: in vivo, human
# Excerpt: There are no data available for patients with severe hepatic impairment.
# There is no data available for patients with severe hepatic impairment (total bilirubin>3×ULN and any SGOT/AST).
# [5] = system: patients with solid tumors; assay: Cardiac electrophysiology, QTc study; assay type: in vivo, human; settings: 6 mg/kg intravenous every three weeks; 87 patients; large = greater than 20 ms
# Experimental: The effect of 6 mg/kg intravenous ZALTRAP every three weeks on QTc interval was evaluated in 87 patients with solid tumors in a randomized, placebo-controlled study. […] However, a small increase in the mean QTc interval (i.e., less than 10 ms) cannot be excluded due to limitations of the study design.
# pregnant rabbits = assay: Embryo-fetal toxicity study; assay type: in vivo, rabbit; settings: every 3 days during organogenesis, intravenous, all doses tested
# Excerpt: Adverse embryo-fetal effects included increased incidences of postimplantation losses and external (including anasarca, umbilical hernia, diaphragmatic hernia and gastroschisis, cleft palate, ectrodactyly, and atresia), visceral (in the heart, great vessels, and arteries), and skeletal fetal malformations (including fused vertebrae, sternebrae, and ribs; supernumerary arches and ribs, and incomplete ossification). […] The incidence and severity of fetal anomalies increased with increasing dose.
# [6] = system: sexually mature cynomolgus monkeys; assay: 6-month repeat-dose toxicology study; assay type: in vivo, cynomolgus monkey
# Experimental: Reversibility was observed within 18 weeks after cessation of treatment. Systemic exposure (AUC) with a 3 mg per kg per dose in monkeys was approximately 60% of the AUC in patients at the recommended dose.
# Most ziv-aflibercept-related findings were noted from the lowest dose tested (3 mg per kg per dose) correlating to 60% of the AUC at the human recommended dose.
# [7] = system: sexually immature cynomolgus monkeys; assay: 3-month intravenous toxicology study; assay type: in vivo, cynomolgus monkey; settings: after a post-dosing recovery period
# rabbits = assay: Excisional and incisional skin wound healing models; assay type: in vivo, rabbit; settings: for wound healing: repeated administration
# [8] = system: xenotransplanted colon tumors; assay: Xenotransplanted colon tumor growth; assay type: in vivo; settings: mice
# Excerpt: as §1
# endothelial cells = assay: Endothelial cell proliferation in animals; assay type: in vivo
# Excerpt: as §1
# [9] = system: patients with metastatic colorectal cancer (MCRC)
# Excerpt: Each randomized patient was to be treated until disease progression, death, or unacceptable toxicity.
# Treatment arms were evenly balanced for demographics, disease characteristics and prior anti-cancer treatments, including prior exposition to bevacizumab.
# Patients received a median of 9 cycles of ZALTRAP/FOLFIRI or 8 cycles of placebo/FOLFIRI.
# [10] = system: previously treated patients with metastatic colorectal cancer; settings: pre-treated patients with MCRC; cited from earlier work
# [11] = system: non-small cell lung cancer (NSCLC); settings: added to docetaxel vs docetaxel plus placebo; cited from earlier work
# [12] = system: patients with metastatic colorectal cancer (MCRC); assay: EFC10262 (VELOUR) randomized double-blind phase 3 study: efficacy (OS, PFS, response rate);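 also: Placebo-controlled comparison, both arms on FOLFIRI every 2 weeks until progression or intolerable toxicity, in patients progressing on or within 6 months after oxaliplatin-based combination chemotherapy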
# Excerpt: Each randomized patient was to be treated until disease progression, death, or unacceptable toxicity. […] The predefined statistical significance level for this final analysis was 0.0466 after adjusting the type I error spent for the two interim analyses using the O'Brien-Fleming spending function.
# The study included one formal interim analysis, planned for the purpose of efficacy, when 561 death events (65% information time) had occurred. Upon request of the independent Data Monitoring Committee (DMC), an additional interim analysis of OS was performed to provide an early evaluation of the benefit-risk ratio, when 315 death events (36.5% information fraction) had occurred.
# A total of approximately 863 deaths were required to detect 20% hazard rate reduction in OS with 90% power using the two-sided log rank test at an overall 0.0499 alpha level. The median survival times was expected to be 11 months for the control group. The overall alpha level was split between overall survival (0.0499) and progression-free survival as a secondary efficacy endpoint (0.0001).
# Approximately 1200 patients (i.e. 600 patients per treatment group) were planned to be randomized. Treatment assignment was stratified according to prior therapy with bevacizumab (yes or no), and ECOG performance status (PS) (0 vs 1 vs 2).
# The enrolment started in November 2007 and was completed in March 2010. A total of 1226 patients were randomized. […] Treatment arms were evenly balanced for demographics, disease characteristics and prior anti-cancer treatments, including prior exposition to bevacizumab.
# Immediately after, patients received irinotecan, 5-FU and leucovorin (FOLFIRI regimen). This treatment was repeated every 2 weeks.
# Study 1 was a randomized, double-blind, placebo-controlled study in patients with metastatic colorectal cancer (mCRC) who are resistant to or have progressed during or within 6 months of receiving oxaliplatin-based combination chemotherapy, with or without prior bevacizumab. A total of 1226 patients were randomized (1:1) to receive either ZALTRAP (N=612; 4 mg per kg as a 1 hour intravenous infusion on day 1) or placebo (N=614), in combination with 5-fluorouracil plus irinotecan [FOLFIRI: irinotecan 180 mg per m2 IV infusion over 90 minutes and leucovorin (dl racemic) 400 mg per m^2 intravenous infusion over 2 hours at the same time on day 1 using a Y-line, followed by 5-FU 400 mg per m^2 intravenous bolus, followed by 5-FU 2400 mg per m^2 continuous intravenous infusion over 46-hours]. The treatment cycles on both arms were repeated every 2 weeks. Patients were treated until disease progression or unacceptable toxicity. The primary efficacy endpoint was overall survival. Treatment assignment was stratified by the ECOG performance status (0 versus 1 versus 2) and according to prior therapy with bevacizumab (yes or no).
# [13] = includes death due to disease progression
substance,measurement,setting,value
ziv-aflibercept: recombinant fusion protein of VEGF-binding portions of human VEGF Receptors 1 and 2 fused to the Fc portion of human IgG1 (SEQ ID NO:1),Grade 3-4 GI perforation events,[1],0.8%
same,incidence of GI perforation (all grades),[1],0.8%
same,RPLS (posterior reversible encephalopathy syndrome),"patients with cancer; 3795 patients, monotherapy or in combination with chemotherapy",0.5%
same,thrombotic microangiopathy (TMA),patients with cancer; patients with cancer enrolled across completed studies,3 of 2258
same,neutralizing antibodies detected,[2]; among APA-positive patients with sufficient samples,17 of 48
same,incidence of APA development,"[2]; intravenous, 53/1687 patients",3.1%
same,mean free ziv-aflibercept trough concentrations in patients with positive neutralizing antibodies,[2]; versus the overall population,lower
same,Kd,human PIGF-2,0.039 nM
same,Kd,human VEGF-B,0.00192 nM
same,dose linearity of free ziv-aflibercept concentrations,[3]; dose range of 2-9 mg/kg,linear pharmacokinetics
same,Steady state concentrations of free ziv-aflibercept reached,"[3]; human, in vivo",by the second dose
same,increase in systemic exposure in patients weighing >=100 kg,[4]; compared to patients weighing 50 to 100 kg,29%
same,pharmacokinetic drug-drug interactions with irinotecan/SN-38 or 5-FU,[4]; cross-study comparisons and population pharmacokinetic analyses,No clinically important pharmacokinetic drug-drug interactions
same,exposure in patients with mild and moderate hepatic impairment vs normal hepatic function,[4]; data from 1507 patients,similar
same,"exposure in patients with mild, moderate, and severe renal impairment vs normal renal function",[4]; data from 1507 patients,similar
same,"effect of age, race, and gender on the exposure of free ziv-aflibercept",[4]; in vivo,did not have a clinically important effect
same,change in the mean QT interval from baseline (Fridericia correction),[5],No large changes in the mean QT interval
same,embryo-fetal toxicity,pregnant rabbits,produced embryo-fetal toxicity
same,embryo-fetal toxicity,pregnant rabbits; listed as ZALTRAP,embryotoxic and teratogenic
same,reproductive function and fertility,[6]; all doses tested including 3 mg per kg,impaired reproductive function and fertility
same,reversibility of reproductive findings after cessation of treatment,[6]; monkeys,≤ 18 weeks
same,repeat-dose toxicity findings,"[6]; weekly/every two weeks intravenous for up to 6 months, from 3 mg per kg per dose",changes in the bone
same,reversibility of skeletal and nasal cavity effects,[7],not reversible
same,full-thickness excisional and incisional skin wound model findings,"rabbits; rabbit, in vivo","reduced fibrous response, neovascularization, epidermal hyperplasia/re-epithelialization, and tensile strength"
same,wound healing,rabbits,delay in wound healing
same,wound healing,rabbits; listed as ZALTRAP,impairs wound healing
same,growth of xenotransplanted colon tumors,[8],inhibited the growth
same,proliferation of endothelial cells,endothelial cells,inhibit the proliferation of endothelial cells
same,Grade 3 GI fistula formation,[9]; 2 patients,0.3%
same,Patients with any TEAE leading to death,[9]; Safety population N = 611,37 (6.1%) number (%) of patients
same,dose reduced and/or omitted,[9]; Study 1,17 % of patients
same,occurrence of grade 3-4 treatment emergent adverse events,[9]; in vivo,83.5%
same,premature treatment discontinuation due to adverse events,[9]; in vivo,19.5%
same,rate of permanent discontinuation of study treatment due to adverse events,[9]; in vivo,26.8%
same,patients with adverse events that led to death after 30 days of last dosing,[9]; [13],12
same,patients with adverse events that led to death within 30 days of last dosing,[9]; [13],28
same,tolerability,[10],well tolerated
same,primary endpoint of improvement in overall survival,[11],did not meet the pre-specified criteria
same,estimated probability of being alive,[12]; 12 months from randomization,56.1%
same,estimated probability of being alive,[12]; 18 months from randomization,38.5%
same,Median overall survival (95.34% CI),"[12]; ITT population, all patients, cutoff 7 FEB. 2011",13.50 months
same,Median PFS (99.99% CI),"[12]; ITT population, all patients, tumor assessment by the IRC, cutoff 6 MAY 2010",6.90 months
same,"Overall Response: Responders (Complete response or Partial response), %","[12]; by IRC, evaluable patient population N = 531",19.8%
same,reduction of risk of death,"[12]; compared to placebo, from hazard ratio",18.3%
same,PFS HR (99.99% CI),[12]; liver metastasis only group,0.547
same,PFS HR (99.99% CI),"[12]; no liver metastasis, or other metastases group",0.839
